Data from patent publication US20200407442A1 (WUXI BIOLOGICS IRELAND, published 2020).

Key:
Assay in all cases: ELISA, antibody coated, LAG-3 D12.mFc mutant in supernatant, normalised to control mutants
[1] = target: T1, human LAG-3-ECD.D12.mFc mutant L134A (human, UniProt P18627 37-252)
T1 construct: Alanine scanning mutant; construct limits as for m26
T1 chain: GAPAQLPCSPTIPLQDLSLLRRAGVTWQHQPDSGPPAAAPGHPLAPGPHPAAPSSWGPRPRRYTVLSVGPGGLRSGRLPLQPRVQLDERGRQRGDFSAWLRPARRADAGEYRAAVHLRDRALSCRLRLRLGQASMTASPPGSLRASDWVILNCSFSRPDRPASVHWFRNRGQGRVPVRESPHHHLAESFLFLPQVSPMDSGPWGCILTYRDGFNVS
Method in brief: (§1)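 Antibody 1.53.3-uAb-IgG4k or 3.40.19-uAb-hIgG4L coated at 2 μg/mL, then exposed to supernatant containing quantified LAG-3 D12.mFc mutants. Detection with HRP anti-mFc (1:5000). Absorbance normalized to mean of control mutants; binding fold change <0.75 set as epitope cutoff.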

[2] = target: T2, human LAG-3-ECD.D12.mFc mutant V151A (human, UniProt P18627 37-252)
T2 construct: Alanine scanning mutant; construct limits as for m26
T2 chain: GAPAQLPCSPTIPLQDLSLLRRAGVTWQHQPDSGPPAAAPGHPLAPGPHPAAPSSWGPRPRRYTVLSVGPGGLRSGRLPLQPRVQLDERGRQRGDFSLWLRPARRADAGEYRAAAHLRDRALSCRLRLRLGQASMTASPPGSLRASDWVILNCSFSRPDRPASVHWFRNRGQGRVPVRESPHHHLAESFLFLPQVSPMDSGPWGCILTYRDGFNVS
Method in brief: as §1

[3] = target: T3, human LAG-3-ECD.D12.mFc mutant D155A (human, UniProt P18627 37-252)
T3 construct: Alanine scanning mutant; construct limits as for m26
T3 chain: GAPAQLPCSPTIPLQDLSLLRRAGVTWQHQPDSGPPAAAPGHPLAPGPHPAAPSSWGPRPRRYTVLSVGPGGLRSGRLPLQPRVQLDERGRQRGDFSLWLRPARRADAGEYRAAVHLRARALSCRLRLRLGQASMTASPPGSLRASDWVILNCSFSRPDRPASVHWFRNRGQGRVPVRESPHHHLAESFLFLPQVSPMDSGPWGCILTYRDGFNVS
Method in brief: as §1

[4] = target: T4, human LAG-3-ECD.D12.mFc mutant P138A (human, UniProt P18627 37-252)
T4 construct: Alanine scanning mutant; construct limits as for m26
T4 chain: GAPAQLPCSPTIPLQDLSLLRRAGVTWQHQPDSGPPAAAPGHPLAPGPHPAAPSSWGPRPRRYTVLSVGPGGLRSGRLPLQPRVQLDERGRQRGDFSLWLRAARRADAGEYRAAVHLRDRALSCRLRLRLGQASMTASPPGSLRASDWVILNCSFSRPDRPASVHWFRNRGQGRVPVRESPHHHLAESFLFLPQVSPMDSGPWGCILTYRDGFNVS
Method in brief: as §1

[5] = target: T5, human LAG-3-ECD.D12.mFc mutant A40G (human, UniProt P18627 37-252)
T5 construct: construct limits as for m26
T5 chain: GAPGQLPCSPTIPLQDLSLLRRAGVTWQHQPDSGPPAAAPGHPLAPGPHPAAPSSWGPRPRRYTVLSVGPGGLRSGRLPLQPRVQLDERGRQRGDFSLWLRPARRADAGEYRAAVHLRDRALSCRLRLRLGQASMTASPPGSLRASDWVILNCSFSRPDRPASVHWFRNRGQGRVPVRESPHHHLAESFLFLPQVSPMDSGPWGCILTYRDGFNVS
Method in brief: as §1

[6] = target: T6, human LAG-3-ECD.D12.mFc mutant T62A (human, UniProt P18627 37-252)
T6 construct: Alanine scanning mutant; construct limits as for m26
T6 chain: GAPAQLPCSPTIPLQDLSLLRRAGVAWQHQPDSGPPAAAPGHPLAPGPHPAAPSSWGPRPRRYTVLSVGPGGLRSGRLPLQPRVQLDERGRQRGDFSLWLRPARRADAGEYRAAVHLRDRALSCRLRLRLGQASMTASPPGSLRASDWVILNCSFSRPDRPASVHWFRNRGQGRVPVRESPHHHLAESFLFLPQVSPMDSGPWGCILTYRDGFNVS
Method in brief: as §1

[7] = target: T7, human LAG-3-ECD.D12.mFc mutant R137A (human, UniProt P18627 37-252)
T7 construct: Alanine scanning mutant; construct limits as for m26
T7 chain: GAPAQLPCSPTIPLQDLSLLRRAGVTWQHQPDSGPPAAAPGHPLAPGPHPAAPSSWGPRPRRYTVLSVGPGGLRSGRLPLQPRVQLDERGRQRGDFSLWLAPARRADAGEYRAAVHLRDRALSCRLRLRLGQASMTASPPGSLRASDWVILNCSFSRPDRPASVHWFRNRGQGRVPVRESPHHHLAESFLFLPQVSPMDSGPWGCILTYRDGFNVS
Method in brief: as §1

Fold Change [1]: 0.04
Fold Change [2]: 0.043
Fold Change [3]: 0.701
Fold Change [4]: 0.106
Fold Change [5]: 0.608
Fold Change [6]: 0.727
Fold Change [7]: 0.101
B1: 3.40.19-uAb-IgG4L (antibody, V domains shown)
VH: QLQLQESGPGLVKPSETLSLTCTVSGDSISSTSYYWGWIRQPPGKGLEWIGSFYYSGSTYYNPSLKSRVTISVDTSKNQFSLKLNSVTAADTAVYYCARMQLWSYDVDVWGQGTTVTVSS
VL: QSALTQPASVSGSPGQSITISCTGTSSDVGGYDYVAWYQQHPGKVPKLMIYDVSERPSGVSNRFSGSKSGNTASLTISGLQAEDEADYYCSSYTSTTTLVVFGGGTKLSVL
notes: Fully human antibody from OMT rats; IgG4 lambda by its name; also called 3.40.19-uAb-hIgG4L
